In patent publication US20250312452A1 (BRISTAR IMMUNOTECH, published 2025):
Values belong to the binder of their own block, whether it stands above or below them.

Columns and labels:
[1] = molecular target: T1, MSLN (UniProt Q13421 296-580, limits assumed); experiment: BLI affinity detection
T1 construct: also called mesothelin

[2] = molecular target: human Claudin18.2 expressed on cells (human) (UniProt P56856); experiment: flow cytometry on SNU1-hClaudin18.2 cells, APC anti-human IgG Fc secondary antibody
[3] = molecular target: human Claudin18.2 expressed on cells (human) (UniProt P56856); experiment: flow cytometry on SNU1-hClaudin18.2 cells
[4] = molecular target: T2, Human Claudin18.2 His tag protein (human, UniProt P56856-2 1-261, limits assumed); experiment: BLI (Octet), antibody on Protein A biosensor
T2 construct: also called Claudin18.2 protein; not shown: His tag
T2 sequence (looked up): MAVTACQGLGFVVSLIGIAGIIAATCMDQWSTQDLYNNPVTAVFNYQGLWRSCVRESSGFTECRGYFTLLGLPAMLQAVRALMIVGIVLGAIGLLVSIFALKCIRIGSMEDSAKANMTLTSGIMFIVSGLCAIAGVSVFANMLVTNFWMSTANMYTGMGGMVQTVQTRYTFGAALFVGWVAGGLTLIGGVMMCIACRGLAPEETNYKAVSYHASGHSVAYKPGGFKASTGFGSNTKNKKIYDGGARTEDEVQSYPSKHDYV
Description: The affinity of Claudin18.2 nanobodies was determined. The affinity of the antibodies was measured using the Fortebio Octet® detection instrument based on the biolayer interferometry (BLI) technique.
After the 5 antibodies were immobilized on the Protein A biosensor, the antibodies could bind to the Human Claudin18.2 His tag protein. The measured affinity was calculated using Data Analysis 11 software of the Octet RED96e (ForteBio). The affinities (KD values) of antibody NCLD04 and antibody NCLD31 for the Claudin18.2 protein are both favorable.

[5] = molecular target: T3, Claudin18.2 protein (UniProt P56856-2 1-261, limits assumed); experiment: flow cytometry of STAR-T cells stained with Claudin18.2 protein
T3 sequence (looked up): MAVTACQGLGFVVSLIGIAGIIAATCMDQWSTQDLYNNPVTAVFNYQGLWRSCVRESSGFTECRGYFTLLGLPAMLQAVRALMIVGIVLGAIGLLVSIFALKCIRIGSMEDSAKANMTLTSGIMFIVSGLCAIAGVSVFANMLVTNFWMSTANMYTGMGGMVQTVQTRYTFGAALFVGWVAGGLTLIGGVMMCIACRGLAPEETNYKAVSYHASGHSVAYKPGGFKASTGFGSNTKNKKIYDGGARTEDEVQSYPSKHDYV
From the text: The above-mentioned vectors were used to package lentiviruses and infect T cells. After one week of culture, the expression levels of STAR and Claudin18.2 on the cells were detected by flow cytometry.
Specifically, the expression of the Claudin18.2 antibody in the STAR structure on the cell membrane was detected by staining with the Claudin18.2 Protein antibody, and the positive rate of STAR vector infection was detected by mTCRβ. […] The protein binding of NCR8020-NCLD04α-STAR and NCLD04 STAR is relatively good, exceeding 55%. Both MND-NCLD04β-NCR802a STAR-mL15 and MND-NCR8020-NCLD04α STAR-mL15 can be successfully expressed on the membrane.

T1 sequence (Q13421 other isoform, or with tags, fused parts or gaps limits assumed): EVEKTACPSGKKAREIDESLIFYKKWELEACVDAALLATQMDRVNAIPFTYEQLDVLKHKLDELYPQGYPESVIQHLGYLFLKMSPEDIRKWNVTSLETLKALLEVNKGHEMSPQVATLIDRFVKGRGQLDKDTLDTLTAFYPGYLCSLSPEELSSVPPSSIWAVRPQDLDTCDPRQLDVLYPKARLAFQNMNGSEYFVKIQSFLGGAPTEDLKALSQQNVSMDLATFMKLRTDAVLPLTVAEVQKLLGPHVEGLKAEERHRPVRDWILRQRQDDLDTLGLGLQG

- Kd [1]: 11.4 nM
B1: NM5 (VHH)
VHH: DVQLQESGGGLVQAGGSLRLSCVGAGVSFSPYGIGWWRQAQGNQREWVASIYRSGSTNYEDFAKDRFTISRDNTKNTAYLQMNSLKPEDTAVYYCQILGTSYRGQGTQVTVSS
notes: also called nanobody NM5; NM5 antibody

- EC50 (read off the curve) [2]: 3 nM
- EC50 [3]: 21 nM
- Kd [4]: 72.6 nM
- koff [4]: 0.00456 s⁻¹
- kon [4]: 62900 M⁻¹ s⁻¹
B2: NCLD14 (VHH-IgG1 Fc) (Fc fusion)
chain: DVQLQESGGGLVQPGGSLRLSCATSGFTFSTYNMGWFRQAPGKEREFVGSIKWSASTTYYADSVKGRFTISRDNAKNTVYLQMNSLKPEDTAIYYCAGSPHIALGTRTEMYPYWGQGTQVTVSS
notes: Tested as VHH-IgG1 Fc; also called antibody NCLD14; not shown: IgG1 Fc fused to the VHH

- protein binding (percent of cells) [5]: > 55%
B3: NCLD04-STAR (NCLD04β-STAR-a(G4S)3OX40(gh)) (other)
chain 1: DVQLQESGGGLVQPGGSLRLSCTASGLTFNDYAVSWLRQAPGKEREFVATIRGSGGVTNYGASAEGRFIISRENAENTVYLQMNSLKSEDTAVYYCNARPLFGWSEEYWGQGTQVTVSSEDLRNVTPPKVSLFEPSKAEIANKQKATLVCLARGFFPDHVELSWWVNGKEVHSGVCTDPQAYKESNYSYCLSSRLRVSATFWHNPRNHFRCQVQFHGLSEEDKWPEGSPKPVTQNISAEAWGRADCGITSASYQQGVLSATILYEILLGKATLYAVLVSTLVVMAMVKRKNS
chain 2: DIQNPEPAVYQLKDPRSQDSTLCLFTDFDSQINVPKTMESGTFITDKCVLDMKAMDSKSNGAIAWSNQTSFTCQDIFKETNATYPSSDVPCDATLTEKSFETDMNLNFQNLLVIVLRILLLKVAGFNLLMTLRLWGGGGSGGGGSGGGGSRRDQRLPPDAHKPPGGGSFRTPIQEEQADAHSTLAKI
notes: Synthetic T-cell receptor and antigen receptor on T cells; NCLD04 VHH on the beta constant region; also called NCLD04-STAR-T
